US20160356794A1 (Merck Sharp & Dohme, published 2016)
No end group written: not given here.

Assays:
[1] = target: T1, PPTREPKKVAVVRTP (human); assay: RepliTope peptide microarray, immobilized 15-mer, fluorescent secondary antibody
T1 construct: Synthetic peptide covalently immobilized on glass through a hydrophilic linker (RepliTope microarray)
T1 peptide: PPTREPKKVAVVRTP
Text: (§1) Epitope mapping of clones 10H8 and 19G10 was completed using JPT Peptide Technologies' RepliTope™ peptide microarrays. This technology consists in using purified synthetic peptides chemoselectively and covalently immobilized to the glass surface. An optimized hydrophilic linker moiety is inserted between the glass surface and the antigen derived peptide sequence to avoid false negatives caused by sterical hindrance. The peptides used spanned Tau mid region protein sequence of 166 amino acids between amino acid 104 and amino acid 269 (Tau 166). Peptides of 15 amino acids in length that extended downstream either 1 or 2 amino acids at a time were used in this experiment.
(§2) The assay was performed using an automated TECAN HS4X00 microarray processing station. Microarrays were washed, incubated with blocking buffer for 60 min at 30° C., and subsequently with clones […] and 19G10 diluted in blocking buffer for 120 min at 30° C. Microarrays were washed and incubated with secondary antibody diluted in blocking buffer for 45 min at 30° C. and then dried. The quantification was performed using high resolution fluorescence scanner. The resulting images were analyzed and quantified using spot-recognition software GenePix (Molecular Devices). For each spot, the mean signal intensity was extracted and expressed as arbitraty florescence units.

[2] = target: T2, … (human); assay: as above
T2 construct: Synthetic peptide covalently immobilized on glass through a hydrophilic linker (RepliTope microarray)
Text: as §1, §2

[3] = target: T3, PTPPTREPKKVAVVR (human); assay: as above
T3 construct: Synthetic peptide covalently immobilized on glass through a hydrophilic linker (RepliTope microarray)
T3 peptide: PTPPTREPKKVAVVR
Text: as §1, §2

[4] = target: T4, PGSRSRTPSLPTPPT (human); assay: as above
T4 construct: Synthetic peptide covalently immobilized on glass through a hydrophilic linker (RepliTope microarray)
T4 peptide: PGSRSRTPSLPTPPT
Text: as §1, §2

[5] = target: T5, LPTPPTREPKKVAVV (human); assay: as above
T5 construct: Synthetic peptide covalently immobilized on glass through a hydrophilic linker (RepliTope microarray)
T5 peptide: LPTPPTREPKKVAVV
Text: as §1, §2

[6] = target: T6, EPKKVAVVRTPPKSP (human); assay: as above
T6 construct: Synthetic peptide covalently immobilized on glass through a hydrophilic linker (RepliTope microarray)
T6 peptide: EPKKVAVVRTPPKSP
Text: as §1, §2

[7] = target: T7, PTREPKKVAVVRTPP (human); assay: as above
T7 construct: Synthetic peptide covalently immobilized on glass through a hydrophilic linker (RepliTope microarray)
T7 peptide: PTREPKKVAVVRTPP
Text: as §1, §2

[8] = target: T8, TPPTREPKKVAVVRT (human, also: covalently immobilized on glass through a hydrophilic linker); assay: as above
T8 construct: Synthetic peptide covalently immobilized on glass through a hydrophilic linker (RepliTope microarray)
T8 peptide: TPPTREPKKVAVVRT
Text: as §1, §2

[9] = target: T9, PTPPTREPKKVAVVR (human); assay: as above
T9 construct: Synthetic peptide covalently immobilized on glass through a hydrophilic linker (RepliTope microarray)
T9 peptide: PTPPTREPKKVAVVR
Text: as §1, §2

[10] = target: T10, … (human); assay: as above; remark: listed apart in the source
T10 construct: Synthetic peptide covalently immobilized on glass through a hydrophilic linker (RepliTope microarray)
Text: as §1, §2

[11] = target: T11, SLPTPPTREPKKVAV (human, also: covalently immobilized on glass through a hydrophilic linker); assay: as above
T11 construct: Synthetic peptide covalently immobilized on glass through a hydrophilic linker (RepliTope microarray)
T11 peptide: SLPTPPTREPKKVAV
Text: as §1, §2

[12] = target: T12, PPTREPKKVAVVRTP (human); assay: as above
T12 construct: Synthetic peptide covalently immobilized on glass through a hydrophilic linker (RepliTope microarray)
T12 peptide: PPTREPKKVAVVRTP
Text: as §1, §2

[13] = target: T13, REPKKVAVVRTPPKS (human); assay: as above
T13 construct: Synthetic peptide covalently immobilized on glass through a hydrophilic linker (RepliTope microarray)
T13 peptide: REPKKVAVVRTPPKS
Text: as §1, §2

[14] = target: T14, TREPKKVAVVRTPPK (human, also: covalently immobilized on glass through a hydrophilic linker); assay: as above
T14 construct: Synthetic peptide covalently immobilized on glass through a hydrophilic linker (RepliTope microarray)
T14 peptide: TREPKKVAVVRTPPK
Text: as §1, §2

[15] = target: T15, SRSRTPSLPTPPTRE (human, also: covalently immobilized on glass through a hydrophilic linker); assay: as above
T15 construct: Synthetic peptide covalently immobilized on glass through a hydrophilic linker (RepliTope microarray)
T15 peptide: SRSRTPSLPTPPTRE
Text: as §1, §2

[16] = target: T16, KKVAVVRTPPKSPSS (human); assay: as above
T16 construct: Synthetic peptide covalently immobilized on glass through a hydrophilic linker (RepliTope microarray)
T16 peptide: KKVAVVRTPPKSPSS
Text: as §1, §2

[17] = target: T17, EPKKVAVVRTPPKSP (human); assay: as above
T17 construct: Synthetic peptide covalently immobilized on glass through a hydrophilic linker (RepliTope microarray)
T17 peptide: EPKKVAVVRTPPKSP
Text: as §1, §2

[18] = target: T18, TREPKKVAVVRTPPK (human, also: covalently immobilized on glass through a hydrophilic linker); assay: as above
T18 construct: Synthetic peptide covalently immobilized on glass through a hydrophilic linker (RepliTope microarray)
T18 peptide: TREPKKVAVVRTPPK
Text: as §1, §2

[19] = target: T19, SLPTPPTREPKKVAV (human, also: covalently immobilized on glass through a hydrophilic linker); assay: as above
T19 construct: Synthetic peptide covalently immobilized on glass through a hydrophilic linker (RepliTope microarray)
T19 peptide: SLPTPPTREPKKVAV
Text: as §1, §2

[20] = target: h-Tau 441 (human Tau isoform 2-441, Accession No. NP 005901.2) (human, UniProt P10636 2-758); assay: SPR, BIAcore CM3 sensor chip, immobilized h-Tau 441
Sequence of h-Tau 441 (human Tau isoform 2-441, Accession No. NP 005901.2) (P10636 other isoform, or with tags, fused parts or gaps limits assumed): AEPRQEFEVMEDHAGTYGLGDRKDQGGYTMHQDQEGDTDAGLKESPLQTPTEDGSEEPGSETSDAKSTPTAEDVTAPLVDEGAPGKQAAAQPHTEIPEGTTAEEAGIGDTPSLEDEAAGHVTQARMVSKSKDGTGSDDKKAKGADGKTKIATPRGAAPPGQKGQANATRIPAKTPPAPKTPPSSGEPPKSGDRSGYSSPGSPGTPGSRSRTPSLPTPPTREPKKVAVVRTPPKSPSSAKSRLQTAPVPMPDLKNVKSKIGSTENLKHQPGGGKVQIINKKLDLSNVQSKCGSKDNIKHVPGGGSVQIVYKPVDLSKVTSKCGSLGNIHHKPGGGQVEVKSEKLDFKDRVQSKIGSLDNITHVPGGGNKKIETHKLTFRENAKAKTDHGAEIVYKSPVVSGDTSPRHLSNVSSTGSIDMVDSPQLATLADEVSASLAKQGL
Protocol: The binding affinity (Kd) of the 10H8 and 19G10 mAbs was determined by BIAcore CM3 sensor chip (Biacore, Piscataway, N.J.) using immobilized h-Tau 441 as the capture protein.

B1: monoclonal antibody 10H8 (antibody, mouse IgG1, V domains shown)
VH: EVQLQQSGAELVRPGASVKLSCTASGFNIKDEYMNWVKQRPERGLEWIGWIDPENGDAAYASKFQGKATMTADTSSNTAYLQLSSLTSEDTAVYFCTFFYSNYDGYFDVWGAGTTVTVSS
VL: DVLMTQTPLSLPVSLGDQASISCRSSQNIIHSNGSTYLEWYLQKPGQSPKLLIYKVSNRFSGVPDRFSGSGSGTDFTLKISRVEAEDLGIYYCFQGSHVPWTFGGGTKLEIK
notes: also called mAb 10H8; 10H8 mAb
Fluorescent Intensity [1]: 61100 arbitrary fluorescence units | Fluorescent Intensity [2]: 56700 arbitrary fluorescence units | Fluorescent Intensity [3]: 64200 arbitrary fluorescence units | Fluorescent Intensity [4]: 570 arbitrary fluorescence units | Fluorescent Intensity [5]: 59500 arbitrary fluorescence units | Fluorescent Intensity [6]: 2100 arbitrary fluorescence units | Fluorescent Intensity [7]: 64300 arbitrary fluorescence units | Fluorescent Intensity [8]: 60600 arbitrary fluorescence units | Fluorescent Intensity [9]: 53000 arbitrary fluorescence units | Fluorescent Intensity [10]: 58000 arbitrary fluorescence units | Fluorescent Intensity [11]: 63900 arbitrary fluorescence units | Fluorescent Intensity [12]: 60200 arbitrary fluorescence units | Fluorescent Intensity [13]: 1400 arbitrary fluorescence units | Fluorescent Intensity [14]: 58800 arbitrary fluorescence units | Fluorescent Intensity [15]: 552 arbitrary fluorescence units | Fluorescent Intensity [16]: 750 arbitrary fluorescence units | Fluorescent Intensity [17]: 890 arbitrary fluorescence units | Fluorescent Intensity [18]: 32400 arbitrary fluorescence units | Fluorescent Intensity [19]: 64400 arbitrary fluorescence units | Kd [20]: 17 nM | koff [20]: 0.000306 s⁻¹ | kon [20]: 18200 M⁻¹ s⁻¹
